Measurements as given in article PMC10636567.

Columns and labels:
[1] = molecular target: human LGI1–FLAG (leucine-rich, glioma inactivated 1 protein) (human) (UniProt O95970); assay: co-IP; HEK293T co-transfected; lysis 24 h after transfection in 20 mM Tris-HCl pH 8.0, 1 mM EDTA, 0.5% Fos-Choline-14; PSD-95-FLAG or LGI1-FLAG precipitated with FLAG-M2 agarose, washed with 100 mM NaCl, 1% Triton X-100, eluted with FLAG peptide; western blot, band intensities; n = 3
rat PSD-93-GFP (rat) = rat PSD-93-GFP (rat) (UniProt Q63622); assay: co-IP; HEK293T co-transfected; GFP-tagged MAGUK proteins precipitated with anti-GFP antibody; western blot
rat SAP102-GFP (rat) = rat SAP102-GFP (rat) (UniProt Q62936); assay: as above
rat PSD-95-FLAG (rat) = rat PSD-95-FLAG (rat) (UniProt P31016); assay: co-IP; HEK293T co-transfected; lysis 24 h after transfection in 20 mM Tris-HCl pH 8.0, 1 mM EDTA, 0.5% Fos-Choline-14; PSD-95-FLAG or LGI1-FLAG precipitated with FLAG-M2 agarose, washed with 100 mM NaCl, 1% Triton X-100, eluted with FLAG peptide; western blot, band intensities; n = 3
Sequence of rat PSD-95-FLAG (rat) (P31016 whole entry): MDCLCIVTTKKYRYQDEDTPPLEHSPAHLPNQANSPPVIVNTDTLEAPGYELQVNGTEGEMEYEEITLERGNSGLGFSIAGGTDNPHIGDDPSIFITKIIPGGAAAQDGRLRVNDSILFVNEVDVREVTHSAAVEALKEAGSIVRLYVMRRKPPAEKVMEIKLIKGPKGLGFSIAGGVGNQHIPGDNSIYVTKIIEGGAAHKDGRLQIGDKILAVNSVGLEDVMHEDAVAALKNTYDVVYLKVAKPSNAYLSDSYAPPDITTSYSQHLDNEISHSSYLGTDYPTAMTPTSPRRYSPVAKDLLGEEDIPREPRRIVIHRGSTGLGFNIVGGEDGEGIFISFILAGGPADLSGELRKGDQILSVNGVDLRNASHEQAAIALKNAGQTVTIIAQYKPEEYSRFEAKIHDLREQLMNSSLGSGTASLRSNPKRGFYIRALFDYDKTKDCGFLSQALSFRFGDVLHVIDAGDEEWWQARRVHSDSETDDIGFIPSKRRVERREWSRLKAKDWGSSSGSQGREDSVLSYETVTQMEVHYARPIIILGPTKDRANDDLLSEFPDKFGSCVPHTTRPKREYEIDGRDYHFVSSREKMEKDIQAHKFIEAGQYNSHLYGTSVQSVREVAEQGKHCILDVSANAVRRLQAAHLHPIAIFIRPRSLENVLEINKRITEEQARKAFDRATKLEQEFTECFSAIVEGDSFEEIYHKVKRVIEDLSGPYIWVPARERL

Sequence of human LGI1–FLAG (leucine-rich, glioma inactivated 1 protein) (human) (O95970 35-557): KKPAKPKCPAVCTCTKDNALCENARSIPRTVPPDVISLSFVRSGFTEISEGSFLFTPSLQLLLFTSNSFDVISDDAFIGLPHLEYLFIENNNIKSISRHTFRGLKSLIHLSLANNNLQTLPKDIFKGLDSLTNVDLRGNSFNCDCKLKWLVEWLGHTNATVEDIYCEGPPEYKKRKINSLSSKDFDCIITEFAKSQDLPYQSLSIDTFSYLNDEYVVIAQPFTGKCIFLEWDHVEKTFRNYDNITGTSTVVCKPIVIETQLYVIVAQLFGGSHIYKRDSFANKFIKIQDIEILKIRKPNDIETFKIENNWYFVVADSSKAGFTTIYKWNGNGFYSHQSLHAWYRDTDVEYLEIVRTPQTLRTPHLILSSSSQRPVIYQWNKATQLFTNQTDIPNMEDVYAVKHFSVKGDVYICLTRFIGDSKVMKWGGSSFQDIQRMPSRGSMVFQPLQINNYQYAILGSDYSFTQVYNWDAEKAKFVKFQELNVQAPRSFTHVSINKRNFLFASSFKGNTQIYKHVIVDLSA
Sequence of rat SAP102-GFP (rat) (Q62936 whole entry): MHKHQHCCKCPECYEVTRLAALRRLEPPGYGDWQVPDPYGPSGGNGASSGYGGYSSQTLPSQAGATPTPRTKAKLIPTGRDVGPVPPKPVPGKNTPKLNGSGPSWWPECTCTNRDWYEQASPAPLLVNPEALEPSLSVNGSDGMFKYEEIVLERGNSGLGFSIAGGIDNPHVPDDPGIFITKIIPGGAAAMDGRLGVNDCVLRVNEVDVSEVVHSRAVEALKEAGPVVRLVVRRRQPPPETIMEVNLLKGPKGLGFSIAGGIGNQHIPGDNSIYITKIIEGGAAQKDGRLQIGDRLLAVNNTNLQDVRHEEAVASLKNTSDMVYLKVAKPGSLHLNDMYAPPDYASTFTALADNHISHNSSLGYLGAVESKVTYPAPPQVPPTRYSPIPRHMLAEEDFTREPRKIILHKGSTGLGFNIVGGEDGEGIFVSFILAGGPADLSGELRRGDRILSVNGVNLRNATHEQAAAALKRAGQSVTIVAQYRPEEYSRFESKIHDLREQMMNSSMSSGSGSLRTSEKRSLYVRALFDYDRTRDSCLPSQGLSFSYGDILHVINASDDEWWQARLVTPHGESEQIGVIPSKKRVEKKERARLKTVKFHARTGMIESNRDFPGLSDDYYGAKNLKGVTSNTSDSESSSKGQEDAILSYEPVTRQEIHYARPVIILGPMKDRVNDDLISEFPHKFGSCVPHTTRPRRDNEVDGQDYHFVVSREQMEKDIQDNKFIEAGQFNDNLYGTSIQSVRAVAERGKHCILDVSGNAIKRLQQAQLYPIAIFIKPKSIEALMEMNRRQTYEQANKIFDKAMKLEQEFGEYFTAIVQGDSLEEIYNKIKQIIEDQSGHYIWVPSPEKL
Sequence of rat PSD-93-GFP (rat) (Q63622 whole entry): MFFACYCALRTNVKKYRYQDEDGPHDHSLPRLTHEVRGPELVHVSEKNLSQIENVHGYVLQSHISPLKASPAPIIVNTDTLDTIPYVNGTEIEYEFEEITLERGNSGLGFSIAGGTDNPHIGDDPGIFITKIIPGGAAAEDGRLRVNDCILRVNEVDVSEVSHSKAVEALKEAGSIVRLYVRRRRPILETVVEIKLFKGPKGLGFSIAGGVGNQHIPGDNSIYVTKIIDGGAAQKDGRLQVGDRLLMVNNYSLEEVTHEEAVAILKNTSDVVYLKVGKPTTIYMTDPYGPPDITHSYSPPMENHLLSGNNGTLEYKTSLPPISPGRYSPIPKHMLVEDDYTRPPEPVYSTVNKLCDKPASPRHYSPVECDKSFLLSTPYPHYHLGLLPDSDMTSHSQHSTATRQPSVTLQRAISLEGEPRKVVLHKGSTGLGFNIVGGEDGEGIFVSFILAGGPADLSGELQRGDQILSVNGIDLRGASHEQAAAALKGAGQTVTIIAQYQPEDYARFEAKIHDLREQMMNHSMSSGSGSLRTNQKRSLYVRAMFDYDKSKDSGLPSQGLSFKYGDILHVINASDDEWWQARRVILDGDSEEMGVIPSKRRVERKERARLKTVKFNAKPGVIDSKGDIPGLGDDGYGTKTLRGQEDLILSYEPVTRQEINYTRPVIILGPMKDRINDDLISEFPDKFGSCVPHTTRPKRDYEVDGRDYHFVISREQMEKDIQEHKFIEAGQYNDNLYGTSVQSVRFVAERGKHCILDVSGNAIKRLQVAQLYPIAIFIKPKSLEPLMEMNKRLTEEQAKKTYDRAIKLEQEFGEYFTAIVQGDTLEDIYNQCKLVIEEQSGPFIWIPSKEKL

co-immunoprecipitated amount, percent of wild type [1]	co-immunoprecipitated amount, percent of wild type (rat PSD-93-GFP (rat))	co-immunoprecipitated amount, percent of wild type (rat SAP102-GFP (rat))	co-immunoprecipitated amount, percent of wild type (rat PSD-95-FLAG (rat))	Substance
40%				ADAM22 C401Y variant (from UniProt Q9P0K1 26-906) (receptor)
75%	20%	20%	20%	human ADAM22 S905F variant (from UniProt Q9P0K1-1 26-906) (receptor)
